Test results: the Human Domainome abundance scans (Beltran et al. 2025)

B1: Tumor protein p73, residues 487 to 549; numbered along this chain, O15350 (parent)
chain: YHADPSLVSFLTGLGCPNCIEYFTSQGLQSIYHLQNLTIEDLGALKIPEQYRMTIWRGLQDLK
B2: Homeobox protein SIX3, residues 212 to 262; numbered along this chain, O95343 (parent)
chain: CFKERTRSLLREWYLQDPYPNPSKKRELAQATGLTPTQVGNWFKNRRQRDR

Variants of: B1
Test: abundance fitness (aPCA) (normalised: wild type 0, dead -1); higher = more abundant; growth selection in yeast, the domain comes from the species named
Settings: Homo sapiens

Abundance fitness: each site, then its substitutions
Q60: C -0.102
A44: K 0.057
L45: K -0.216
G43: W -0.135
L34: R -0.867; S -0.319
C19: Q 0.028
T24: W -0.187; S -0.007
G13: H 0.11; E 0.047; I -0.138
C16: S -0.389
E21: H -0.089
H2: S 0.274

Variants of: B2
Test: as above
Settings: Homo sapiens

Abundance fitness, by site and new letter:
S8: K 0.048
F2: L -0.022; R -0.324; T -0.106; Y 0.079; M 0.253; H -0.083; A -0.183; K 0.009; C -0.315; I -0.047; G -0.04; W -0.538; Q -0.178; D 0.361; N 0.149; E 0.037; P -0.258
N21: W -0.613; G -0.042; I -0.433; P 0.027; H -0.171; S 0.078; A -0.159; V -0.14; D 0.322; L -0.375; R -0.351; F -0.499; Q -0.553; K 0.23; T 0.224; M -0.277
Q16: K -0.212; T -0.249; M 0.13; S -0.285; F -0.109; E -0.302; D -0.601; Y -0.382; I 0.251; W -0.327; H -0.173; R -0.076; N -0.092; G -0.564; A -0.106; P -0.712
R11: H -0.227; P -0.514; F -0.061; I 0.004; E -0.047; T 0.106; G -0.302; S -0.021; N -0.111; Q -0.23; W -0.07; A -0.131; Y -0.408; C -0.392; L -0.026; D -0.22; V -0.141; M 0.077; K -0.138
T6: N -0.409; A -0.268; Y -0.289; E -0.287; L -0.16; W -0.434; C -0.533; M -0.115; G -0.192; Q -0.067; H 0.086; V 0.057; R -0.401; S -0.354; F -0.504; I 0.288; K -0.513
Y19: L -0.352; T -0.278; H -0.337; K -0.095; S -0.514; W -0.374; M -0.292; V -0.474; A -0.372; P -0.85; D -0.368; F -0.089; G -0.849; Q -0.426; R -0.184; N -0.313; E -0.591; C -0.308
L10: N -0.724; T -0.974; Q -0.972; G -0.961; S -0.647; H -0.868; E -0.886; F -0.824; W -1.03; C -0.88; A -0.895; R -0.93; V -1.01; P -0.872; Y -0.561; M -0.381
L9: E -0.481; M -0.199; T -0.138; Q -0.266; I -0.095; C -0.694; R -0.369; G -0.726; Y -0.001; V -0.071; A -0.43; K -0.226; F -0.51; P -0.644; N -0.8; S -0.733; D -0.825; W -0.632; H -0.417
K3: N 0.165; S -0.106; H -0.72; P -0.39; V -0.655; A -0.3; E 0.074; Q -0.216; R -0.275; I -0.362; C 0.158; M -0.624; T -0.134; Y -0.262; D -0.037
E12: A -0.256; W -0.185; V -0.608; L -0.426; C -0.84; T -0.285; G -0.3; N 0.23; Y -0.09; I -0.618; D -0.098; K -0.314; F -0.45; S -0.236; P -0.872; M -0.282
W13: S -0.069; M 0.012; F -0.545; Y -0.007; A 0.015; K -0.399; N 0.097; I -0.153; Q 0.026; L -0.139; V -0.075; D -0.527; P -0.747; C -0.08; E -0.078; T -0.066; H -0.338
E4: M -0.178; F -0.226; N -0.357; S -0.136; A -0.931; L -0.605; Y -0.441; D -0.532; G -0.532; V -0.651; R -0.708; K -0.152; W -0.684; C -0.685
L15: Q 0.08; C 0.756; D 0.114; A 0.358; V -0.22; M -0.309; S -0.568; R 0.145; E -0.091; W -0.551
Y14: G -0.833; P -0.672; C -0.822; A -0.896; F -0.294; D -1.14; S -0.667; T -0.946; I -0.746; W -0.711; L -0.828; K -0.81; Q -0.834; R -0.849; E -0.893; M -0.891; H -0.951; N -0.734
R5: P -0.329; V 0.003; Q -0.317; H -0.522; L -0.283; M -0.16; E -0.098; C -0.359; A -0.075; I -0.418; K -0.394; D -0.18; Y -0.455; N -0.225; G -0.102; T -0.148; S 0.187; W -0.369
D17: H -1.04; A -0.89; N -0.599; S -0.627; K -0.665; Q -0.814; P -0.753; V -0.878; R -0.907; Y -1; E -0.204; T -0.844; F -0.82; M -0.81; G -0.834; C -0.78; I -0.927
C1: G -0.359; F 0.499; W -0.251; S -0.121; E -0.342; V -0.402; I 0.874
P20: N -0.912; E -0.756; G -0.764; L -0.339; K -0.977; W -1.13; S -1.05; R -0.819; T -0.838; V -0.477; M -0.663; F -0.799; Y -0.707; Q -0.812; D -0.845; A -0.425; C -0.486
P18: T -0.629; K -0.136; A -0.226; S -0.474; F -0.672; G -0.906; M -0.501; I -0.487; H -0.028; R -0.182; E -0.717; Q -0.286; C -0.032; V -0.687; L -0.903
R7: P -0.702; D -0.26; Y 0.033; W -0.091; V -0.03; E -0.181; M -0.128; G -0.261; H 0.238; S 0.006; I 0.083; T -0.403; Q -0.137; L -0.272; F -0.419; N 0.188
